By EC50 is commonly meant the midpoint of the concentration-response curve.

The target of experiment [1] is T1, human PSGL-1 on cells (Sp2/0-hPSGL-1 transfectants; activated human primary T cells) (human, UniProt Q14242 42-412).
T1 sequence (looked up): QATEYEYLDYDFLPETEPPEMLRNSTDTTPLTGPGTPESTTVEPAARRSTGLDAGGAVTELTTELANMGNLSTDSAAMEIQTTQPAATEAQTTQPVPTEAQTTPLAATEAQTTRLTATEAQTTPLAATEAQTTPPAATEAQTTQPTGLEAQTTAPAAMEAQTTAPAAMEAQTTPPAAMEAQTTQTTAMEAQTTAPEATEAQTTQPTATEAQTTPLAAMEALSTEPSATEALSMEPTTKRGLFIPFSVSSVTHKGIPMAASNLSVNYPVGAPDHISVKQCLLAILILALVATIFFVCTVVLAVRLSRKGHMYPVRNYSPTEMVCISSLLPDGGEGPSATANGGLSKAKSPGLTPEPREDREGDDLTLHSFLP
Description: cell-based or functional assay.

Experiment [2] addresses T2, human PSGL-1 (extracellular domain) recombinant protein (SinoBiological, 13863-H08H) (human, UniProt Q14242 42-320).
T2 construct: extracellular domain; Bought protein; also called recombinant PSGL-1; hPSGL-1 extracellular domain antigen
T2 sequence (looked up): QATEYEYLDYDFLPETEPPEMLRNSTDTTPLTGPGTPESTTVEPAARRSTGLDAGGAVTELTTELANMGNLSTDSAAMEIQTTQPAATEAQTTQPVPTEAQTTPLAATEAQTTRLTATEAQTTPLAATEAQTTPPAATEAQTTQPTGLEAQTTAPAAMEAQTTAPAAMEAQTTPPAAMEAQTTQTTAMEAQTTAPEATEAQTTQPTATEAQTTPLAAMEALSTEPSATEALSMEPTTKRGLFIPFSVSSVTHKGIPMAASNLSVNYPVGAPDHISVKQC
The experiment in a line: ELISA, plate coated with recombinant PSGL-1 at lower density (0.03 pg/mL as printed), FIG. 3C. The protocol: (§1) 96-well NUNC-Immuno plates (Thermo Fisher, Cat #442404) were coated with 100 μL per well of 0.5, 0.05, or 0.03 pg/mL human PSGL-1 (extracellular domain) recombinant protein (SinoBiological, 13863-H08H) overnight at 4° C. Plates were then washed with Wash Buffer (1×PBS with 0.05% Tween 20, pH 7.4) and blocked with 0.5% (w/v) BSA-PBS for 60 min at room temperature on a plate shaker set to 300 rpm. After blocking, 100 μL of serial dilutions of 15A7H-IgM, 15A7H-IgG4, and controls at concentration range of 5000 pM-4.89 pM were added to the wells and incubated at room temperature for 1 hour. […] After 5 final washes using Wash Buffer, the plates were read out using TMB substrate (followed the instruction manual of BD OptEIA. Cat. 555214) by incubating the wells with […] each of freshly prepared TMB Working Solution for 5 min followed by the addition of sulfuric acid to stop the reaction. Finally, the data of absorbance at 450 nm (OD450 nm) were collected on an ELISA plate reader and analyzed with SoftMax using a 4-parameter logistic model.
(In an ELISA, binding on a coated surface is turned into a signal by an enzyme label.)

Experiment [3] deals with T2, human PSGL-1 (extracellular domain) …. Description: ELISA, plate coated with recombinant PSGL-1 at high density (0.5 µg/mL), FIG. 3A. The protocol:
as §1

The target is the same in experiment [4]. Description: ELISA, plate coated with recombinant PSGL-1 at lower density (0.05 pg/mL as printed), FIG. 3B. The protocol:
as §1

B1: 15A7H-IgM (antibody)
heavy: EVQLVESGGGLVQPGGSLRLSCAASGFTFSSFGMHWVRQAPGKGLEWVAYINGGSSTIFYANAVKGRFTISRDNAKNTLYLQMNSLRAEDTAVYYCARYASYGGGAMDYWGQGTLVTVSSGSASAPTLFPLVSCENSPSDTSSVAVGCLAQDFLPDSITFSWKYKNNSDISSTRGFPSVLRGGKYAATSQVLLPSKDVMQGTDEHVVCKVQHPNGNKEKNVPLPVIAELPPKVSVFVPPRDGFFGNPRKSKLICQATGFSPRQIQVSWLREGKQVGSGVTTDQVQAEAKESGPTTYKVTSTLTIKESDWLSQSMFTCRVDHRGLTFQQNASSMCVPDQDTAIRVFAIPPSFASIFLTKSTKLTCLVTDLTTYDSVTISWTRQNGEAVKTHTNISESHPNATFSAVGEASICEDDWNSGERFTCTVTHTDLPSPLKQTISRPKGVALHRPDVYLLPPAREQLNLRESATITCLVTGFSPADVFVQWMQRGQPLSPEKYVTSAPMPEPQAPGRYFAHSILTVSEEEWNTGETYTCVVAHEALPNRVTERTVDKSTGKPTLYNVSLVMSDTAGTCY
light: DIQMTQSPSSLSASVGDRVTITCRSSQSIVHNDGNTYFEWYQQKPGKAPKLLIYKVSNRFSGVPSRFSGSGSGTHFTLTISSLQPEDFATYYCFQGSYVPLTFGQGTKVEIKRTVAAPSVFIFPPSDEQLKSGTASVVCLLNNFYPREAKVQWKVDNALQSGNSQESVTEQDSKDSTYSLSSTLTLSKADYEKHKVYACEVTHQGLSSPVTKSFNRGEC
chain: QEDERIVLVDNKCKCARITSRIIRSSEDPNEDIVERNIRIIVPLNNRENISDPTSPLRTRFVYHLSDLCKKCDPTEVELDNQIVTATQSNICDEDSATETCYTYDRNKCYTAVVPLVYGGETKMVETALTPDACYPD
notes: also called 15A7H-IgM antibody; pentameric 15A7H-IgM
Turning to B1, in experiment [1], the “EC50 (nM) of apoptosis of activated T cells, Donor 1” value turned out to be 0.0177 nM; the “EC50 (nM) of apoptosis of activated T cells, Donor 2” value came out at 0.0152 nM; the “EC50 (nM) of apoptosis of activated T cells, Donor 3” value was determined as 0.0096 nM; the “EC50 (µg/mL) of apoptosis of activated T cells, Donor 1” value was 0.0156 µg/mL. In experiment [1], the “EC50 (µg/mL) of apoptosis of activated T cells, Donor 2” value was 0.0134 µg/mL and the “EC50 (µg/mL) of apoptosis of activated T cells, Donor 3” value turned out to be 0.00844 µg/mL. Moreover, in experiment [2], the EC50 came out at 39.6 pM. In experiment [3], the EC50 was 92.6 pM. The EC50 in experiment [4] amounted to 45.9 pM.

B2: 15A7H-IgG4 (antibody, V domains shown)
VH: EVQLVESGGGLVQPGGSLRLSCAASGFTFSSFGMHWVRQAPGKGLEWVAYINGGSSTIFYANAVKGRFTISRDNAKNTLYLQMNSLRAEDTAVYYCARYASYGGGAMDYWGQGTLVTVSS
VL: DIQMTQSPSSLSASVGDRVTITCRSSQSIVHNDGNTYFEWYQQKPGKAPKLLIYKVSNRFSGVPSRFSGSGSGTHFTLTISSLQPEDFATYYCFQGSYVPLTFGQGTKVEIKR
notes: Bivalent IgG4 antibody described in WO 2012/174001; In some functional assays it was used with a mouse anti-human IgG Fc-gamma cross-linker (CL); also called anti-PSGL-1 bivalent mAb 15A7H; 15A7H-IgG4 + CL (when used with cross-linker)
For the molecule B2, the EC50 in experiment [2] worked out at 120 pM; in experiment [3], 141 pM; in experiment [4] it was 97.4 pM.

The values are drawn from US20260250411A1 (ALTRUBIO, published 2026).
